The values below come from publication PMC11101452, “Structures of the mumps virus polymerase complex via cryo-electron microscopy” (Nature Communications, 2024).

This series deals with the molecule itself. The series can be described thus: cryo-EM structure; L–P complex co-expressed in Sf9 and co-purified by the Strep tag of L; 2.0 μM; annealed and unannealed samples combined; 150 mM NaCl, 20 mM Tris-HCl, 6 mM MgCl2, 1 mM TCEP, pH 8.0; two conformations (L_(integral)–P, L_(body)–P).

B1: mumps virus (strain Jeryl-Lynn) phosphoprotein (P) (natural protein)
chain: MDQFIKQDETGDLIETGMNVANHFLSTPIQGTNSLSKASILPGVAPVLIGNPEQKNIQHPTASHQGSKTKGRGSGVRSIIVSPSEAGNGGTQIPEPLFAQTGQGGIVTTVYQDPTIQPTGSYRSVELAKIGKERMINRFVEKPRTSTPVTEFKRGGPGAAAQGQTIQEEGIDGNGASAGSKERSGSLSGATLYAHLSLPQQDSTPANVGIAPQSAISANEIMDLLRGMDARLQHLEQKVDKVLAQGSMVTQIKNELSTVKTTLATIEGMMATVKIMDPGNPTGVPVDELRRSFSDHVTIVSGPGDVSFSSSEKPTLYLDELARPVSKPRPAKQTKSQPVKDLAGQKVMITKMITDCVANPQMKQAFEQRLAKASTEDALNDIKRDIIRSAI
notes: Phosphoprotein (P) of mumps virus strain Jeryl-Lynn, GenBank AAF70389.1; domains NTD, OD, Linker2, CTD (with XD); Four P molecules (P1-P4) stand in the L–P complex; only POD, Linker2 and part of PCTD are resolved; also called MuV P; P1; not shown: Flag, C-terminal, kept
In general, stoichiometry N refers to the number of molecules, sites or subunits per partner or assembly. In the case of B1, the “stoichiometry N” value is 4.
